According to the supplement of paper PMC12338614:
± gives the uncertainty stated by the source.

B1: library; numbered along this chain (parent)
chain: MEVVDPQQLGMFTEGELMSVGMDTFIHRIDSTEVIYQPRRKRAKLIGKYLMGDLLGEGSYGKVKEVLDSETLCRRAVKILKKKKLRRIPNGEANVKKEIQLLRRLRHKNVIQLVDVLYNEEKQKMYMVMEYCVCGMQEMLDSVPEKRFPVCQAHGYFCQLIDGLEYLHSQGIVHKDIKPGNLLLTTGGTLKISDLGVAEALHPFAADDTCRTSQGSPAFQPPEIANGLDTFSGFKVDIWSAGVTLYNITTGLYPFEGDNIYKLFENIGKGSYAIPGDCGPPLSDLLKGMLEYEPAKRFSIRQIRQHSWFRKKHPPAEAPVPIPPSPDTKDRWRSMTVVPYLEDLHGADEDEDLFDIEDDIIYTQDFTVPGQVPEEEASHNGQRRGLPKAVCMNGTEAAQLSTKSRAEGRAPNPARKACSASSKIRRLSACKQQ

Variants of: B1
Assay: STK11 functional score (HeLa growth suppression), rescaled enrichment; synonymous median = 1, nonsense median = 0 (normalised score)
Conditions: with HeLa; variant type: missense
Method in brief: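 Functional scores are post/pre-selection log ratios corrected to wild type, rescaled to synonymous and nonsense medians, merged over codons and replicate transfections, and given bootstrapped error. They come from POPCode libraries of codon-optimised STK11 integrated by Bxb1 at an AAVS1 landing pad in HeLa, three regions each transfected three times, with BFP-negative, mCherry-positive integrants sorted by FACS and tiled gDNA amplicons sequenced on NextSeq.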
MEVVDPQQLGMFTEGELMSVGMDTFIHRIDSTEVIYQPRRKRAKLIGKYLMGDLLGEGSYGKVKEVLDSETLCRRAVKILKKKKLRRIPNGEANVKKEIQLLRRLRHKNVIQLVDVLYNEEKQKMYMVMEYCVCGMQEMLDSVPEKRFPVCQAHGYFCQLIDGLEYLHSQGIVHKDIKPGNLLLTTGGTLKISDLGVAEALHPFAADDTCRTSQGSPAFQPPEIANGLDTFSGFKVDIWSAGVTLYNITTGLYPFEGDNIYKLFENIGKGSYAIPGDCGPPLSDLLKGMLEYMPAKRFSIRQIRQHSWFRKKHPPAEAPVPIPPSPDTKDRWRSMTVVPYLEDLHGADEDEDLFDIEDDIIYTQDFTVPGQVPEEEASHNGQRRGLPKAVCMNGTEAAQLSTKSRAEGRAPNPARKACSASSKIRRLSACKQQ [E293M] showed an STK11 functional score of 0.995 ± 0.14.
With MEVVDPQQLGMFTEGELMSVGMDTFIHRIDSTEVIYQPRRKRAKLIGKMLMGDLLGEGSYGKVKEVLDSETLCRRAVKILKKKKLRRIPNGEANVKKEIQLLRRLRHKNVIQLVDVLYNEEKQKMYMVMEYCVCGMQEMLDSVPEKRFPVCQAHGYFCQLIDGLEYLHSQGIVHKDIKPGNLLLTTGGTLKISDLGVAEALHPFAADDTCRTSQGSPAFQPPEIANGLDTFSGFKVDIWSAGVTLYNITTGLYPFEGDNIYKLFENIGKGSYAIPGDCGPPLSDLLKGMLEYEPAKRFSIRQIRQHSWFRKKHPPAEAPVPIPPSPDTKDRWRSMTVVPYLEDLHGADEDEDLFDIEDDIIYTQDFTVPGQVPEEEASHNGQRRGLPKAVCMNGTEAAQLSTKSRAEGRAPNPARKACSASSKIRRLSACKQQ [Y49M] the STK11 functional score was 1.22 ± 0.82.
Variant MEVVDPQQLGMFTEGELMSVGMDTFIHRIDSTEVIYQPRRKRAKLIGKYLMGDLLGEGSYGKVKEVLDSETLCRRAVKILKKKKLRRIPNGEANVKKEIQLLRRLRHKNVIQLVDVLYNEEKQKMYMVMEYCVCGMQEMLDSVPEKRFPVCQAHGYFCQLIDGLEYLHSQGIVHKDHKPGNLLLTTGGTLKISDLGVAEALHPFAADDTCRTSQGSPAFQPPEIANGLDTFSGFKVDIWSAGVTLYNITTGLYPFEGDNIYKLFENIGKGSYAIPGDCGPPLSDLLKGMLEYEPAKRFSIRQIRQHSWFRKKHPPAEAPVPIPPSPDTKDRWRSMTVVPYLEDLHGADEDEDLFDIEDDIIYTQDFTVPGQVPEEEASHNGQRRGLPKAVCMNGTEAAQLSTKSRAEGRAPNPARKACSASSKIRRLSACKQQ [I177H] has an STK11 functional score of -0.12 ± 0.21.
Variant MEVVDPQQLGMFTEGELMSVGMDTFIHRIDSTEVIYQPRRKRAKLIGKYLMGDLLGEGSYGKVKEVLDSETLCRRAVKILKKKKLRRIPNGEANVKKEIQLLRRLRHKNVIQLVDVLYNEEKQKMYMVMEYCVCGMQEMLDSVPEKRFPVCQAHGYFCQLIDGLEYLHSQGIVHKDIKPGNLLLTTGGTLKISDLGVAEALHPFAADDTCRISQGSPAFQPPEIANGLDTFSGFKVDIWSAGVTLYNITTGLYPFEGDNIYKLFENIGKGSYAIPGDCGPPLSDLLKGMLEYEPAKRFSIRQIRQHSWFRKKHPPAEAPVPIPPSPDTKDRWRSMTVVPYLEDLHGADEDEDLFDIEDDIIYTQDFTVPGQVPEEEASHNGQRRGLPKAVCMNGTEAAQLSTKSRAEGRAPNPARKACSASSKIRRLSACKQQ [T212I] has an STK11 functional score of 1.13 ± 0.55.
MEVVDPQQLGMFTEGELMSVGMDTFIHRIDSTEVIYQPRRKRAKLIGKYLMGDLLGEGSYGKVKEVLDSETLCRRAVKILKKKKLRRIPNGEANVKKEIQLLRRLRHKNVIQLVDVLYNEEKQKMYMVMEYCVCGMQEMLDSVPEKRFPVCQAHGYFCQLIRGLEYLHSQGIVHKDIKPGNLLLTTGGTLKISDLGVAEALHPFAADDTCRTSQGSPAFQPPEIANGLDTFSGFKVDIWSAGVTLYNITTGLYPFEGDNIYKLFENIGKGSYAIPGDCGPPLSDLLKGMLEYEPAKRFSIRQIRQHSWFRKKHPPAEAPVPIPPSPDTKDRWRSMTVVPYLEDLHGADEDEDLFDIEDDIIYTQDFTVPGQVPEEEASHNGQRRGLPKAVCMNGTEAAQLSTKSRAEGRAPNPARKACSASSKIRRLSACKQQ [D162R] showed an STK11 functional score of 1.55 ± 0.43.
MEVVDPQQLGMFTEGELMSVGMDTFIHRIDSTEVIYQPRRKRAKLIGKYLMGDLLGEGSYGKVKEVLDSETLCRRAVKILKKKKLRRIPNGEANVKKEIQLLRRLRHKNVIQLVDVLYNEEKQKMYMVMEYCVCGMQEMLDSVPEKRFPVCQAHGYFCQLIDGLEYLHSQGIVHKDIKPGNLLLTTGGTLKISDLGVAEALHPFAADDTCRTSQGSPAFQPPEIANGLDTFSGFKVDIWSAGVTLYNITTGLYPFEGDNIYKLFENIGKGSYAIPGDCGPPLSDLLKGMLEYEPAKRFSIRQIRQHSWFRKKHPPAEAPVPIPPSPDTKDRWRSMTVVPYLEDLHGADEDEDLFDIEDDIIYSQDFTVPGQVPEEEASHNGQRRGLPKAVCMNGTEAAQLSTKSRAEGRAPNPARKACSASSKIRRLSACKQQ [T363S] showed an STK11 functional score of 1.34 ± 0.17.
For MEVVDPQQLGMFTEGELMSVGMDTFIHRIDSTEVIYQPRRKRAKLIGKYLMGDLLGEGSYGKVKEVLDSETLCRRAVKILKKKKLRRIPNGEANVKKEIQLLRRLRHKNVIQLVDVLYNEEKQKMYMVMEYCVCGMQEMLDSVPEKRFPVCQAHGYFCQLIDGLEYLHSQGIVHKDIKPGNLLLTTGGTLKISDLGVAEALHPFAADDTCRTSQGSPAFQPPEIANGLDTFSGFKVDIWSAGVTLYNITTGLYPFEGDNIYKLFENIGKGSYAIPGDCGPPLSDLLKGMLEYEPAKRFSIRQIRQHSWFRKKHPPAEAPVPIPPSPDTKDRWRSMTVVPYLEDLHGADEDEDLFDIEDDIIYTQDFTVPGQVPEEEASHNGQRRGLPKAVCMNGTEAAQLSTKSRAEGRAPNPARKACSASSKMRRLSACKQQ [I424M], the STK11 functional score was 1.42 ± 0.38.
